Values belong to the molecule of their own block, whether it stands above or below them.
Experiments:
[1] = biological target: Gfp-ZC67 (E. coli) (UniProt P0A9A6)
[2] = biological target: Gfp-ZC67(R379E) (E. coli) (UniProt P0A9A6)
[3] = biological target: the molecule itself; assay: co-sedimentation; polymers collected by ultracentrifugation (129,000xg, 30 min, 23°C) after 3 min with GTP (2 mM) and a regenerating system in 50 mM MES pH 6.5, 100 mM KCl, 10 mM MgCl2; FtsZ and/or Gfp-FtsZ, 10 μM total; pellets and supernatants by SDS-PAGE
[4] = biological target: the molecule itself; assay: cross-linking + other: sucrose gradient fractionation; without GTP; labeled FtsZ 24 μM in 50 mM MES pH 6.5, 100 mM KCl, 10 mM MgCl2; cross-linked with DSP (0.6 mM), 5–20% sucrose gradient with 40% cushion, 100,000xg, 180 min, 4°C; fractions read by fluorescence

- degradation of Gfp-ZC67 (3 μM) by ClpXP (1 μM) with ATP (5 mM): loss of Gfp fluorescence after 60 min (% of the initial fluorescence) [1]: 25
- degradation of Gfp-ZC67(R379E) (3 μM) by ClpXP (1 μM) with ATP (5 mM): loss of fluorescence with time, against Gfp-ZC67 (% more slowly than Gfp-ZC67) [2]: 50
Molecule: ClpXP (from UniProt P0A6H1 1-424; P0A6G7 15-207) (complex)

B1: FtsZ (natural protein, E. coli, UniProt P0A9A6 1-383, looked up)
chain: MFEPMELTNDAVIKVIGVGGGGGNAVEHMVRERIEGVEFFAVNTDAQALRKTAVGQTIQIGSGITKGLGAGANPEVGRNAADEDRDALRAALEGADMVFIAAGMGGGTGTGAAPVVAEVAKDLGILTVAVVTKPFNFEGKKRMAFAEQGITELSKHVDSLITIPNDKLLKVLGRGISLLDAFGAANDVLKGAVQGIAELITRPGLMNVDFADVRTVMSEMGYAMMGSGVASGEDRAEEAAEMAISSPLLEDIDLSGARGVLVNITAGFDLRLDEFETVGNTIRAFASDNATVVIGTSLDPDMNDELRVTVVATGIGMDKRPEITLVTNKQVQQPVMDRYQQHGMAPLTQEQKPVAKVVNDNAPQTAKEPDYLDIPAFLRKQAD
notes: FtsZ, E. coli, cell division protein (tubulin homolog); schematic gives polymerization domain 1-316, unstructured linker 317-369, C-terminal region 370-383; plasmid pET-FtsZ; also called native FtsZ; wild type FtsZ; source: E. coli BL21 (λDE3), purified as described [24,25,72,73]
- binding result [3]: binds

B2: Alexa Fluor labeled FtsZ (FtsZ-AF488) (natural protein, E. coli, UniProt P0A9A6 1-383, looked up)
chain: MFEPMELTNDAVIKVIGVGGGGGNAVEHMVRERIEGVEFFAVNTDAQALRKTAVGQTIQIGSGITKGLGAGANPEVGRNAADEDRDALRAALEGADMVFIAAGMGGGTGTGAAPVVAEVAKDLGILTVAVVTKPFNFEGKKRMAFAEQGITELSKHVDSLITIPNDKLLKVLGRGISLLDAFGAANDVLKGAVQGIAELITRPGLMNVDFADVRTVMSEMGYAMMGSGVASGEDRAEEAAEMAISSPLLEDIDLSGARGVLVNITAGFDLRLDEFETVGNTIRAFASDNATVVIGTSLDPDMNDELRVTVVATGIGMDKRPEITLVTNKQVQQPVMDRYQQHGMAPLTQEQKPVAKVVNDNAPQTAKEPDYLDIPAFLRKQAD
modifications: Alexa Fluor 488 label (site not stated)
notes: FtsZ, E. coli, as m1, labeled with Alexa Fluor; schematic gives regions 1-316, 317-369, 370-383; also called labeled fluorescent FtsZ; Fluorescence-labeled FtsZ; source: E. coli BL21 (λDE3), purified, labeled with Alexa Fluor 488; fluorescent active subunits obtained by cycles of polymerization and depolymerization
- stoichiometry N [4]: 2

Source: article PMC5256927, “Proteolysis-Dependent Remodeling of the Tubulin Homolog FtsZ at the Division Septum in Escherichia coli” (PLoS ONE, 2017)
